Results published in US20210388110A1 (published 2021).
Changes are numbered by the printed parent chain. One block for each binder: values may come before it.

Molecular target: T1, soluble human CD3ε chain (human, UniProt P07766 23-126, limits assumed)
T1 construct: the text says soluble human CD3ε chain; also called human CD3 epsilon chain
Assay: SPR (Biacore)

T1 sequence (P07766 23-126 limits assumed): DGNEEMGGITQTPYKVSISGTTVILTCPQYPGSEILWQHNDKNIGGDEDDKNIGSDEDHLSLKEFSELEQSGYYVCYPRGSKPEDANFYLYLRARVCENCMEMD

B1: TR01H052-E22Hh/none-Hi-Kn010G3/L0000-k0 (antibody, human IgG1, kappa, L234A L235A, N297A)
heavy: QVQLVESGGGLVQPGRSLRLSCAASGFTFSNAWMHWVRQAPGKGLEWVAQIKDKSQNYATYYAESVKGRFTISRADSKNSLYLQMNSLKTEDTAVYYCRYVHYSASYGVDIWGQGTTVTVSSASTKGPSVFPLAPSSKSTSGGTAALGCLVKDYFPEPVTVSWNSGALTSGVHTFPAVLQSSGLYSLSSVVTVPSSSLGTQTYICNVNHKPSNTKVDKKVEPKSCDKTHTCPPCPAPEAAGGPSVFLFPPKPKDTLMISRTPEVTCVVVDVSHEDPEVKFNWYVDGVEVHNAKTKPREEQYASTYRVVSVLTVLHQDWLNGKEYKCKVSNKALPAPIEKTISKAKGQPREPQVYTLPPSRCELTKNQVSLSCAVKGFYPSDIAVEWESNGQPENNYKTTPPVLDSDGSFFLVSKLTVDKSRWQQGNVFSCSVMHEALHNHYTQKSLSLSPDYKDDDDK
chain: EPKSSDKTHTCPPCPAPELLGGPSVFLFPPKPKDTLMISRTPEVTCVVVDVSHEDPEVKFNWYVDGVEVHNAKTKPREEQYNSTYRVVSVLTVLHQDWLNGKEYKCKVSNKALPAPIEKTISKAKGQPREPQVCTLPPSRDELTKNQVSLWCLVKGFYPSDIAVEWESNGQPENNYKTTPPVLDSDGSFFLYSKLTVDKSRWQQGNVFSCSVMHEALHNRYTQKSLSLSP
light: DIVMTQSPLSLPVTPGEPASISCRSSQSLVHSNRNTYLHWYQQKPGQAPRLLIYKVSNRFSGVPDRFSGSGSGTDFTLKISRVEAEDVGVYYCGQGTQVPYTFGQGTKLEIKRTVAAPSVFIFPPSDEQLKSGTASVVCLLNNFYPREAKVQWKVDNALQSGNSQESVTEQDSKDSTYSLSSTLTLSKADYEKHKVYACEVTHQGLSSPVTKSFNRGEC
notes: single-arm
Kd: 62.7 nM

B9: TR01H065-E22Hh/none-Hi-Kn010G3/L0000-k0 (antibody, human IgG1, kappa, L234A L235A, N297A)
heavy: B1 heavy with A75D, L81I, S104A, I111A
chain: B1 chain
light: B1 light
notes: single-arm
Kd: 43.1 nM

B10: TR01H061-E22Hh/none-Hi-Kn010G3/L0222-k0 (antibody, human IgG1, kappa, L234A L235A, N297A)
heavy: B1 heavy with L81I, S104A
chain: B1 chain
light: B1 light with L29P, L38I, H39Q, G94Y
notes: single-arm
Kd: 18.8 nM

B13: TR01H062-E22Hh/none-Hi-Kn010G3/L0000-k0 (antibody, human IgG1, kappa, L234A L235A, N297A)
heavy: B1 heavy with L81I, S104A, I111A
chain: B1 chain
light: B1 light
notes: single-arm
Kd: 31.3 nM

B17: TR01H067-E22Hh/none-Hi-Kn010G3/L0203-k0 (antibody, human IgG1, kappa, L234A L235A, N297A)
heavy: B1 heavy with A75D, S104A, I111A
chain: B1 chain
light: B1 light with L29P, L38I
notes: single-arm
Kd: 47.9 nM

B20: TR01H061-E22Hh/none-Hi-Kn010G3/L0226-k0 (antibody, human IgG1, kappa, L234A L235A, N297A)
heavy: B1 heavy with L81I, S104A
chain: B1 chain
light: B1 light with L29P, L38I, G94I
notes: single-arm
Kd: 47.1 nM

B21: TR01H067-E22Hh/none-Hi-Kn010G3/L0201-k0 (antibody, human IgG1, kappa, L234A L235A, N297A)
heavy: B1 heavy with A75D, S104A, I111A
chain: B1 chain
light: B1 light with S28P, L29P
notes: single-arm
Kd: 59.3 nM

B22: TR01H061-E22Hh/none-Hi-Kn010G3/L0215-k0 (antibody, human IgG1, kappa, L234A L235A, N297A)
heavy: B1 heavy with L81I, S104A
chain: B1 chain
light: B1 light with S28P, L29P, L38I
notes: single-arm
Kd: 15.4 nM

B24: TR01H055-E22Hh/none-Hi-Kn010G3/L0000-k0 (antibody, human IgG1, kappa, L234A L235A, N297A)
heavy: B1 heavy with Q56N, A75D
chain: B1 chain
light: B1 light
notes: single-arm
Kd: 38.8 nM

B25: TR01H061-E22Hh/none-Hi-Kn010G3/L0200-k0 (antibody, human IgG1, kappa, L234A L235A, N297A)
heavy: B1 heavy with L81I, S104A
chain: B1 chain
light: B1 light with S25P, L29P
notes: single-arm
Kd: 12.7 nM

B26: TR01H066-E22Hh/none-Hi-Kn010G3/L0000-k0 (antibody, human IgG1, kappa, L234A L235A, N297A)
heavy: B1 heavy with S104A, I111A
chain: B1 chain
light: B1 light
notes: single-arm
Kd: 60.2 nM

B31: TR01H063-E22Hh/none-Hi-Kn010G3/L0000-k0 (antibody, human IgG1, kappa, L234A L235A, N297A)
heavy: B1 heavy with L11V, R16G, L81I, S104A, I111A
chain: B1 chain
light: B1 light
notes: single-arm
Kd: 43.5 nM

B33: TR01H061-E22Hh/none-Hi-Kn010G3/L0000-k0 (antibody, human IgG1, kappa, L234A L235A, N297A)
heavy: B1 heavy with L81I, S104A
chain: B1 chain
light: B1 light
notes: single-arm
Kd: 17.1 nM

B35: TR01H067-E22Hh/none-Hi-Kn010G3/L0200-k0 (antibody, human IgG1, kappa, L234A L235A, N297A)
heavy: B1 heavy with A75D, S104A, I111A
chain: B1 chain
light: B1 light with S25P, L29P
notes: single-arm
Kd: 60.3 nM

B36: TR01H064-E22Hh/none-Hi-Kn010G3/L0000-k0 (antibody, human IgG1, kappa, L234A L235A, N297A)
heavy: B1 heavy with A23S, L81I, S104A, I111A
chain: B1 chain
light: B1 light
notes: single-arm
Kd: 30.7 nM

Other lines, results leading:

Kd: 8.85 nM
B2: TR01H071-E22Hh/none-Hi-Kn010G3/L0000-k0 (antibody, human IgG1, kappa, L234A L235A, N297A)
heavy: B1 heavy with Q56N, L81I, S104A
chain: B1 chain
light: B1 light
notes: single-arm

Kd: 15.6 nM
B3: TR01H081-E22Hh/none-Hi-Kn010G3/L0000-k0 (antibody, human IgG1, kappa, L234A L235A, N297A)
heavy: B1 heavy with L81I, S104A, S106G
chain: B1 chain
light: B1 light
notes: single-arm

Kd: 6.13 nM
B4: TR01H071-E22Hh/none-Hi-Kn010G3/L0200-k0 (antibody, human IgG1, kappa, L234A L235A, N297A)
heavy: B1 heavy with Q56N, L81I, S104A
chain: B1 chain
light: B1 light with S25P, L29P
notes: single-arm

Kd: 10.9 nM
B5: TR01H067-E22Hh/none-Hi-Kn010G3/TR01L016-k0 (antibody, human IgG1, kappa, L234A L235A, N297A)
heavy: B1 heavy with A75D, S104A, I111A
chain: B1 chain
light: B1 light with L29P, Q42L, A48S, R50Q, G94Y
notes: single-arm

Kd: 59.7 nM
B6: TR01H073-E22Hh/none-Hi-Kn010G3/L0000-k0 (antibody, human IgG1, kappa, L234A L235A, N297A)
heavy: B1 heavy with A75D, S104A
chain: B1 chain
light: B1 light
notes: single-arm

Kd: 47.8 nM
B7: TR01H076-E22Hh/none-Hi-Kn010G3/L0000-k0 (antibody, human IgG1, kappa, L234A L235A, N297A)
heavy: B1 heavy with L11V, R16G, L81I, S104A, I111Y
chain: B1 chain
light: B1 light
notes: single-arm

Kd: 9.51 nM
B8: TR01H071-E22Hh/none-Hi-Kn010G3/L0215-k0 (antibody, human IgG1, kappa, L234A L235A, N297A)
heavy: B1 heavy with Q56N, L81I, S104A
chain: B1 chain
light: B1 light with S28P, L29P, L38I
notes: single-arm

Kd: 9.46 nM
B11: TR01H081-E22Hh/none-Hi-Kn010G3/L0201-k0 (antibody, human IgG1, kappa, L234A L235A, N297A)
heavy: B1 heavy with L81I, S104A, S106G
chain: B1 chain
light: B1 light with S28P, L29P
notes: single-arm

Kd: 25.1 nM
B12: TR01H071-E22Hh/none-Hi-Kn010G3/L0226-k0 (antibody, human IgG1, kappa, L234A L235A, N297A)
heavy: B1 heavy with Q56N, L81I, S104A
chain: B1 chain
light: B1 light with L29P, L38I, G94I
notes: single-arm

Kd: 20.3 nM
B14: TR01H072-E22Hh/none-Hi-Kn010G3/L0000-k0 (antibody, human IgG1, kappa, L234A L235A, N297A)
heavy: B1 heavy with L81I, S104A
chain: B1 chain
light: B1 light
notes: single-arm

Kd: 59.5 nM
B15: TR01H082-E22Hh/none-Hi-Kn010G3/L0011-k0 (antibody, human IgG1, kappa, L234A L235A, N297A)
heavy: B1 heavy with A75D, S104A, S106G, I111A
chain: B1 chain
light: B1 light with S28P
notes: single-arm

Kd: 13.5 nM
B16: TR01H081-E22Hh/none-Hi-Kn010G3/L0011-k0 (antibody, human IgG1, kappa, L234A L235A, N297A)
heavy: B1 heavy with L81I, S104A, S106G
chain: B1 chain
light: B1 light with S28P
notes: single-arm

Kd: 5.76 nM
B18: TR01H081-E22Hh/none-Hi-Kn010G3/L0262-k0 (antibody, human IgG1, kappa, L234A L235A, N297A)
heavy: B1 heavy with L81I, S104A, S106G
chain: B1 chain
light: B1 light with S28P, L29P, G94A
notes: single-arm

Kd: 29.1 nM
B19: TR01H074-E22Hh/none-Hi-Kn010G3/L0000-k0 (antibody, human IgG1, kappa, L234A L235A, N297A)
heavy: B1 heavy with L11V, R16G, L81I, S104A
chain: B1 chain
light: B1 light
notes: single-arm

Kd: 71.1 nM
B23: TR01H069-E22Hh/none-Hi-Kn010G3/L0000-k0 (antibody, human IgG1, kappa, L234A L235A, N297A)
heavy: B1 heavy with L11V, R16G, A75D, S104A
chain: B1 chain
light: B1 light
notes: single-arm

Kd: 44.9 nM
B27: TR01H082-E22Hh/none-Hi-Kn010G3/L0201-k0 (antibody, human IgG1, kappa, L234A L235A, N297A)
heavy: B1 heavy with A75D, S104A, S106G, I111A
chain: B1 chain
light: B1 light with S28P, L29P
notes: single-arm

Kd: 12.1 nM
B28: TR01H067-E22Hh/none-Hi-Kn010G3/TR01L019-k0 (antibody, human IgG1, kappa, L234A L235A, N297A)
heavy: B1 heavy with A75D, S104A, I111A
chain: B1 chain
light: B1 light with R24Q, S25A, Q27E, L29P, Q42L, A48S, R50Q, G94Y
notes: single-arm

Kd: 49.2 nM
B29: TR01H067-E22Hh/none-Hi-Kn010G3/L0262-k0 (antibody, human IgG1, kappa, L234A L235A, N297A)
heavy: B1 heavy with A75D, S104A, I111A
chain: B1 chain
light: B1 light with S28P, L29P, G94A
notes: single-arm

Kd: 5.88 nM
B30: TR01H067-E22Hh/none-Hi-Kn010G3/L0212-k0 (antibody, human IgG1, kappa, L234A L235A, N297A)
heavy: B1 heavy with A75D, S104A, I111A
chain: B1 chain
light: B1 light with S25P, L29P, G94Y
notes: single-arm

Kd: 10.4 nM
B32: TR01H071-E22Hh/none-Hi-Kn010G3/L0222-k0 (antibody, human IgG1, kappa, L234A L235A, N297A)
heavy: B1 heavy with Q56N, L81I, S104A
chain: B1 chain
light: B1 light with L29P, L38I, H39Q, G94Y
notes: single-arm

Kd: 73.7 nM
B34: TR01H082-E22Hh/none-Hi-Kn010G3/L0000-k0 (antibody, human IgG1, kappa, L234A L235A, N297A)
heavy: B1 heavy with A75D, S104A, S106G, I111A
chain: B1 chain
light: B1 light
notes: single-arm
